{
  "source": "paper PMC10527986",
  "key": {"[1]": {"target": "hMPV pre-fusion F protein (A2 strain; A185P, A113C/A339C, RRRR furin site) (human metapneumovirus, A2 strain) (UniProt Q6WB98)", "assay": "SEC"}, "[2]": {"target": "hMPV pre-fusion F protein (A2 strain; A185P, A113C/A339C, RRRR furin site) (human metapneumovirus, A2 strain) (UniProt Q6WB98)", "assay": "cryo-EM structure"}},
  "data": [
    {"substance": "hMPV pre-fusion F protein (A2 strain; A185P, A113C/A339C, RRRR furin site) (from UniProt Q6WB98 19-539) (natural protein)", "values": [
      {"measurement": "stoichiometry N", "setting": "[1]", "value": 3},
      {"measurement": "stoichiometry N", "setting": "[2]", "value": 2}
    ]}
  ]
}
